From patent US20070078102A1, “NF-kB oligonucleotide decoy molecules” (published 2007)

B1: NF-κB p50 from nuclear extract of LPS stimulated THP-1 cells (human monocyte cell line) (other, UniProt P19838 1-433, looked up)
chain: MAEDDPYLGRPEQMFHLDPSLTHTIFNPEVFQPQMALPTDGPYLQILEQPKQRGFRFRYVCEGPSHGGLPGASSEKNKKSYPQVKICNYVGPAKVIVQLVTNGKNIHLHAHSLVGKHCEDGICTVTAGPKDMVVGFANLGILHVTKKKVFETLEARMTEACIRGYNPGLLVHPDLAYLQAEGGGDRQLGDREKELIRQAALQQTKEMDLSVVRLMFTAFLPDSTGSFTRRLEPVVSDAIYDSKAPNASNLKIVRMDRTAGCVTGGEEIYLLCDKVQKDDIQIRFYEEEENGGVWEGFGDFSPTDVHRQFAIVFKTPKYKDINITKPASVFVQLRRKSDLETSEPKPFLYYPEIKDKEEVQRKRQKLMPNFSDSFGGGSGAGAGGGGMFGSGGGGGGTGSTGPGYSFPHYGFPTYGGITFHPGTTKSNAGMKHG
B2: decoy 113/114 C-Z (HIV NF-kB promoter) (dsDNA)
DNA 1: AGTTGAGGGGACTTTCCCAGGC
DNA 2: GCCTGGGAAAGTCCCCTCAACT
B3: decoy 239 C-W' (dsDNA)
DNA 1: CTCGGGGACTTTCCCTCA
DNA 2: TGAGGGAAAGTCCCCGAG
B4: decoy 191 A-X (dsDNA)
DNA 1: CTGGGACTTTCCTC
DNA 2: GAGGAAAGTCCCAG
B5: decoy 221 C-X (dsDNA)
DNA 1: CTGGGGACTTTCCCTC
DNA 2: GAGGGAAAGTCCCCAG
B6: decoy 121 A-V (dsDNA)
DNA 1: TCGGGACTTTCCTC
DNA 2: GAGGAAAGTCCCGA
B7: decoy 207 L-Z (dsDNA)
DNA 1: AGTTGAGGACTTTCCCAGGC
DNA 2: GCCTGGGAAAGTCCTCAACT
B8: 153/154 H10/H8 (dsDNA)
DNA 1: AGTTGAGGACTTTCCAGGC
DNA 2: GCCTGGAAAGTCCTCAACT
modifications: strand 153: 10 3'-most linkages PS, strand 154: 8 3'-most PS
B9: 153/154 H9/H9 (dsDNA)
DNA 1: AGTTGAGGACTTTCCAGGC
DNA 2: GCCTGGAAAGTCCTCAACT
modifications: 9 3'-most linkages PS on both strands
B10: 153/154 H11/PO (dsDNA)
DNA 1: AGTTGAGGACTTTCCAGGC
DNA 2: GCCTGGAAAGTCCTCAACT
modifications: strand 153: 11 3'-most linkages PS, strand 154 all PO
B11: 153/154 H8/H10 (dsDNA)
DNA 1: AGTTGAGGACTTTCCAGGC
DNA 2: GCCTGGAAAGTCCTCAACT
modifications: strand 153: 8 3'-most linkages PS, strand 154: 10 3'-most PS
B12: 153/154 H10/H10 (dsDNA)
DNA 1: AGTTGAGGACTTTCCAGGC
DNA 2: GCCTGGAAAGTCCTCAACT
modifications: 10 3'-most linkages PS on both strands
B13: 153/154 H8/H8 (dsDNA)
DNA 1: AGTTGAGGACTTTCCAGGC
DNA 2: GCCTGGAAAGTCCTCAACT
modifications: 8 3'-most linkages PS on both strands
B14: 153/154 H5/PO (dsDNA)
DNA 1: AGTTGAGGACTTTCCAGGC
DNA 2: GCCTGGAAAGTCCTCAACT
modifications: strand 153: 5 3'-most linkages PS, strand 154 all PO

Experiments:
[1] = target: T1, NF-κB p65 from nuclear extract of LPS stimulated THP-1 cells (human monocyte cell line) (human, UniProt Q04206 1-551); assay: EMSA with antibody supershift, THP-1 nuclear extract; heterodimer on DNA probe
T1 construct: also called RelA
T1 sequence (Q04206 whole entry): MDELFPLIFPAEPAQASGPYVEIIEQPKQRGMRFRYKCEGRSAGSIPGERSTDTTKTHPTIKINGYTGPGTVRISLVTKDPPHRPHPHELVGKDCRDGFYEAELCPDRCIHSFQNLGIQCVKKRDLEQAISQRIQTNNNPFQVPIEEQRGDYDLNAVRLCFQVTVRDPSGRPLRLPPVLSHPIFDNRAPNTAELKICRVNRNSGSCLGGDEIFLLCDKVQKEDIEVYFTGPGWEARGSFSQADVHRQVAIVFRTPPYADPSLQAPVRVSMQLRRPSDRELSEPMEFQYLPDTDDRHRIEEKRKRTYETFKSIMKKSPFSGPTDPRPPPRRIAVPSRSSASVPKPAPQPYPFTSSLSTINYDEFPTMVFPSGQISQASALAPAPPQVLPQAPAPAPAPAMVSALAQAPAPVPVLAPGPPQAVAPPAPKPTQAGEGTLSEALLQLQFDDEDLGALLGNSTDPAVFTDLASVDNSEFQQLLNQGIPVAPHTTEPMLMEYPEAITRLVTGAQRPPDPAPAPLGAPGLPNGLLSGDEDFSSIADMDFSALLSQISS
Description: The NF-κB gel shift assays (EMSA) were performed as follows. A double-stranded oligonucleotide containing a consensus NF-κB binding site (5′ […] 3′) (SEQ ID NO: 78) was end-labeled with γ³²P-ATP using T4 Polynucleotide Kinase (Promega). Alternatively, a double-stranded ODN containing a consensus NF-κB binding site from the IL-6 promoter (5′ […] 3′) (SEQ ID NO: 94) was end-labeled with γ³²P-ATP using T4 Polynucleotide Kinase (Promega). One microgram of a nuclear extract prepared from LPS stimulated THP-1 cells (human monocyte cell line) was incubated with 35 fmol of radiolabeled probe in the presence or absence of competing unlabeled NF-κB double-stranded oligonucleotides (dsODN) or scrambled dsODN. The incubations were carried out at room temperature for 30 minutes in a 20 μl reaction volume composed of 10 mM Tris-HCl pH 8, 100 mM KCL, 5 mM MgCl2, 2 mM DTT, 10% Glycerol, 0.1% NP-40, 0.025% BSA and 1 μg Poly-dIdC. The reactions were loaded onto a 6% polyacrylamide gel, subjected to electrophoresis and dried. The dried gels were imaged and quantitated using a Typhoon 8600 PhosphorImager (Amersham) and ImageQuant software. […]

[2] = target: T2, NF-kB p65/p50 heterodimer (RelA/NFKB1) (Homo sapiens, UniProt Q04206;P19838 Q04206:1-551,P19838:1-433); assay: EMSA; competition vs 32P 113/114 probe, THP-1 nuclear extract, RT; details: protein: extract; tags: none; nuclear extract of LPS-stimulated THP-1 cells
Description: (§1) The EMSA assay was employed to characterize oligonucleotide decoys for the NF-κB transcription factor. […] Using the above modified oligonucleotides to compete for binding for the above-mentioned NF-κB family members, it was possible to compare the binding affinity of these oligonucleotides against the high affinity radiolabeled probe and each other. This assay has also enabled the design of a decoy which selectively binds particular members of the NF-κB family. By using increasing concentrations of various oligonucleotides, it was observed that, by deleting or changing targeted residues in the binding site, it was possible to specifically decrease the binding of the decoy molecule to p50/p50 homodimers, while retaining the affinity for p65/p50 and cRel/p50 heterodimers.
The NF-κB gel shift assays (EMSA) were performed as follows. A double-stranded oligonucleotide containing a consensus NF-κB binding site (5′ […] 3′) (SEQ ID NO: 78) was end-labeled with γ³²P-ATP using T4 Polynucleotide Kinase (Promega). Alternatively, a double-stranded ODN containing a consensus NF-κB binding site from the IL-6 promoter (5′ […] 3′) (SEQ ID NO: 94) was end-labeled with γ³²P-ATP using T4 Polynucleotide Kinase (Promega). […] The dried gels were imaged and quantitated using a Typhoon 8600 PhosphorImager (Amersham) and ImageQuant software.
Target sequence in this assay (Q04206 whole entry, one chain of several): as the sequence (Q04206 whole entry) above

[3] = target: T3, NF-kB p50/p50 homodimer (NFKB1) (Homo sapiens, UniProt P19838 P19838:1-433); assay: EMSA; competition vs 32P 113/114 probe; details: protein: extract; tags: none; nuclear extract of LPS-stimulated THP-1 cells; chain copies: 2 (stated homodimer)
Description: as §1
(§2) The NF-κB gel shift assays (EMSA) were performed as follows. A double-stranded oligonucleotide containing a consensus NF-κB binding site (5′ […] 3′) (SEQ ID NO: 78) was end-labeled with γ³²P-ATP using T4 Polynucleotide Kinase (Promega). Alternatively, a double-stranded ODN containing a consensus NF-κB binding site from the IL-6 promoter (5′ […] 3′) (SEQ ID NO: 94) was end-labeled with γ³²P-ATP using T4 Polynucleotide Kinase (Promega). One microgram of a nuclear extract prepared from LPS stimulated THP-1 cells (human monocyte cell line) was incubated with 35 fmol of radiolabeled probe in the presence or absence of competing unlabeled NF-κB double-stranded oligonucleotides (dsODN) or scrambled dsODN. The incubations were carried out at room temperature for 30 minutes in a 20 μl reaction volume composed of 10 mM Tris-HCl pH 8, 100 mM KCL, 5 mM MgCl2, 2 mM DTT, 10% Glycerol, 0.1% NP-40, 0.025% BSA and 1 μg Poly-dIdC. The reactions were loaded onto a 6% polyacrylamide gel, subjected to electrophoresis and dried. The dried gels were imaged and quantitated using a Typhoon 8600 PhosphorImager (Amersham) and ImageQuant software.

[4] = target: T2, NF-kB p65/p50 heterodimer (RelA/NFKB1); assay: EMSA; competition vs 32P 113/114 probe; details: protein: extract; tags: none; nuclear extract of LPS-stimulated THP-1 cells
Description: as §1, §2
Target sequence in this assay (Q04206 whole entry, chain 1 of 2, one chain of several): as the sequence (Q04206 whole entry) above

[5] = target: T3, NF-kB p50/p50 homodimer (NFKB1); assay: competition; EMSA competition vs HIV NF-kB probe 113/114; details: protein: extract; tags: endogenous, nuclear extract of LPS-stimulated THP-1 cells; chain copies: 2 (stated)
Description: as §1, §2

Binder	IC50 [3] [fold molar excess]	IC50 [4] [fold molar excess]	IC50 [5] [fold molar excess]	other results
B1	–	–	–	binding result [1]: binds
B2	5	–	–	IC50 [2]: 5 fold molar excess
B3	9	9	–	–
B4	22.5	19	–	–
B5	25	25	–	–
B6	34	25	–	–
B7	45	20	–	–
B8	–	–	21	–
B9	–	–	30	–
B10	–	–	33	–
B11	–	–	39	–
B12	–	–	42	–
B13	–	–	53	–
B14	–	–	83	–
